5 molecules from patent US20240301062A1 (BEIGENE SWITZERLAND, published 2024) can be followed below.

By Kd is commonly meant the constant that tells how readily two partners part at equilibrium. A lower Kd goes with tighter binding. What is called koff is the rate constant with which the complex falls apart. The low end stands for a long-lived complex, the high end for a short-lived complex. In general, kon refers to a measure of how fast the partners come together. High values mean faster complex formation, low ones slower complex formation. As usually defined, the EC50 (read off the curve) is the midpoint of the concentration-response curve. Lower therefore signals a more potent agent. Usually EC50 stands for the concentration at which the effect is half-maximal. High values mean weaker potency, low ones greater potency.

Assay [1] addresses T1, CD3ε (SPR analyte) (UniProt P07766 23-126, limits assumed). Briefly: SPR, scFv-Fc.
The target of assay [2] is T2, human native CD3 on live cells (HuT78, Jurkat) (human, UniProt P07766 23-207; P09693 23-182; P04234 22-171).
T2 construct: whole, on cells; also called human CD3
T2 sequence (P07766 23-207, chain 1 of 3): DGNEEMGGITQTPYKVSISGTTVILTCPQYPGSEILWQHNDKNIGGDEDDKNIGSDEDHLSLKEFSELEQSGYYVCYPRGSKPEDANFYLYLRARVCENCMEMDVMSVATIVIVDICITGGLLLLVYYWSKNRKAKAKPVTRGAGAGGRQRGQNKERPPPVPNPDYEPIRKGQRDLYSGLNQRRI
T2 sequence (P09693 23-182, chain 2 of 3): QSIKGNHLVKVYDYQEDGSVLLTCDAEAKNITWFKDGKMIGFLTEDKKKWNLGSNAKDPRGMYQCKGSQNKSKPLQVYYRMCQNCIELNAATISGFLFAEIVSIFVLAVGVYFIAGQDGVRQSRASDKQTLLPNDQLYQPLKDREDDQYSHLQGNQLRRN
T2 sequence (P04234 22-171, chain 3 of 3): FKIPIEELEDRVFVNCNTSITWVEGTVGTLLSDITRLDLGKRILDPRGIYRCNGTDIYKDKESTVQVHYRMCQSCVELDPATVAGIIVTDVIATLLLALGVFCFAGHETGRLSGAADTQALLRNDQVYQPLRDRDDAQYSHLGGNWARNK
The assay can be described thus: flow cytometry on live HuT78 cells, mouse anti-human IgG secondary, MFI. On the procedure: (§1) For affinity determination, antibodies were captured by anti-human Fc surface, and used in the affinity-assay based on surface plasmon resonance (SPR) technology. The binding activity of humanized sp34 to bind native CD3 on live cells was evaluated using HuT78 cells in a FACS based assay. Live HuT78 cells were seeded in 96-well plate, and were incubated with a series of dilutions of chimeric or humanized sp34. Mouse anti-Human IgG was used as second antibody to detect antibody binding to the cell surface. EC50 values for dose-dependent binding to human native CD3 were determined by fitting the dose-response data to the four-parameter logistic model with GraphPad Prism.

In assay [3] the target is T2, human native CD3 on live cells (HuT78, …). The assay can be described thus: FACS, HuT78 cells, Test 1. The procedure: as §1
The target is the same in assay [4]. The assay can be described thus: FACS, HuT78 cells, Test 2. On the procedure:
as §1
For orientation: A flow cytometer gives signals particle by particle.

Assay [5] shares this target. The assay can be described thus: flow cytometry on live HuT78 cells, mouse anti-human IgG secondary, MFI. The procedure:
as §1
This is another data set of the same source.

The target is the same in assay [6]. Briefly: FACS, HuT78 cells. On the procedure:
as §1

The target in assay [7] is T1, CD3ε (SPR analyte). The assay can be described thus: SPR. (In general: SPR reads the build-up and loss of mass on a sensor chip optically.)
In assay [8] the target is T2, human native CD3 on live cells (HuT78, …). The assay can be described thus: flow cytometry on live HuT78 cells, mouse anti-human IgG secondary, MFI. On the procedure:
as §1
The source holds these as a separate data set.

For assay [9] the target is unchanged. Briefly: FACS, HuT78 cells, Test 3. The procedure:
as §1

Assay [10] concerns the target T3, human claudin 6 (CLDN6) (human, UniProt P56747 1-220).
T3 construct: also called human CLDN6; hCLDN6
T3 sequence: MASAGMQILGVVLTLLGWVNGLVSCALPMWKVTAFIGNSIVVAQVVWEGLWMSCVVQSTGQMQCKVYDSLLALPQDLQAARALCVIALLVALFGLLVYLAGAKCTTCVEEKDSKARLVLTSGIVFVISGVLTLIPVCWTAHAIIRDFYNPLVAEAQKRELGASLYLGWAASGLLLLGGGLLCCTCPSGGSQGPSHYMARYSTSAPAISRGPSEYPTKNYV
Briefly: FACS, HEK293T-hCLDN6 cells.

The target in assay [11] is T4, cyno CLDN6 (cyno).
T4 construct: whole, on cells; also called cynomolgus CLDN6
Briefly: FACS, HEK293T-cyno-CLDN6 cells.

Assay [12] concerns the target T3, human claudin 6 (CLDN6). Briefly: flow cytometry on HEK293T/human CLDN6 cells, goat anti-human IgG secondary, MFI(PE). The procedure:
For affinity determination, CLDN6 over-expressing HEK293T cells and cancer cell line PA-1 which express high levels of human CLDN6 were used to evaluate the binding activity of BG87P related engineering variants. Live cells were seeded in 96-well plate, and were incubated with a series of dilutions of chBG87P and engineered variants thereof. Goat anti-human IgG was used as second antibody to detect antibody binding to the cell surface. EC50 values for dose-dependent binding to CLDN6 expressing cell lines were determined by fitting the dose-response data to the four-parameter logistic model with GraphPad Prism. Cell binding activity of 1st round of BG87P humanization variants against HEK293T/human CLDN6 were compared to chBG87P and shown in FIG. 1A.

The target of assay [13] is T4, cyno CLDN6. The assay can be described thus: FACS, HEK293T_cyno-CLDN6 cells.
In the next assay the target is T5, human claudin 9 (CLDN9) (human, UniProt O95484 1-217).
T5 construct: also called human CLDN9
T5 sequence: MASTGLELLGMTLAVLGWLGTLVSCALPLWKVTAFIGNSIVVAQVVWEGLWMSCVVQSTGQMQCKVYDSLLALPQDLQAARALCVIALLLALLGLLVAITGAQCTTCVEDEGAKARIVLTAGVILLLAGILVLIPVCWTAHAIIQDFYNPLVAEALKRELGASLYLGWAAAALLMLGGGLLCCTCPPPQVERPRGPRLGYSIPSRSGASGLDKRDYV
Briefly: flow cytometry on HEK293T/human CLDN9 cells, MFI(PE).

The target of assay [14] is T4, cyno CLDN6. Briefly: flow cytometry on CHOK1/cyno CLDN6 cells, MFI(PE).
Assay [15] concerns the target T3, human claudin 6 (CLDN6). Briefly: FACS, HEK293-hCLDN6 cells.
The target in a further assay is T6, mouse CLDN6 (mouse, UniProt Q9Z262 1-219).
T6 construct: whole, on cells
T6 sequence (looked up): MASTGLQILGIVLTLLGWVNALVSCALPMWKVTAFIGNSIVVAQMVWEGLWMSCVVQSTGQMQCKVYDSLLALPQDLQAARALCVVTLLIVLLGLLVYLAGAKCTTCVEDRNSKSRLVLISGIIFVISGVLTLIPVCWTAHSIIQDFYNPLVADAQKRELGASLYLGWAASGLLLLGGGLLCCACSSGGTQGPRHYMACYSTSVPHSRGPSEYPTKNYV
Briefly: flow cytometry on CHOK1/mouse CLDN6 cells, MFI(PE).

Residue numbers refer to the chain shown, from its start. Names may count otherwise. Like-named read-outs stand apart in the source and are kept apart here.

T1 sequence (P07766 23-126 limits assumed): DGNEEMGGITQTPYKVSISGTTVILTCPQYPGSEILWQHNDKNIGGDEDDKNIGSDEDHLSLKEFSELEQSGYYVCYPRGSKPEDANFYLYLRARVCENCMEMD

B1: humanized scFv BG562P (scFv-Fc) (Fc fusion)
scFv: EVQLVESGGGLVQPGGSLRLSCAASGFTFNTYAMNWVRQAPGKGLEWVARIRSKYNNYATYYADSVKDRFTISRDDAKNSLYLQMNSLRAEDTAVYYCVRHGNFGNSYVSWFAYWGQGTLVTVSSGGGGSGGGGSGGGGSEIVVTQSPATLSVSPGERATLSCRSSTGAVTTSNYANWVQQKPGQAPRGLIGGTNKRAPGIPARFSGSLSGDEATLTISSLQSEDFAVYYCALWYSNLWVFGGGTKVEIK
notes: BG561P with L4V in VL; not shown: human IgG1 Fc region, scFv fused to its N-terminus
Take B1: the Kd with CD3ε (SPR analyte) [1] is 3.16 nM. The molecule also showed a koff with CD3ε (SPR analyte) [1] of 0.000367 s⁻¹. For the same molecule, the kon with CD3ε (SPR analyte) [1] was found to be 116000 M⁻¹ s⁻¹. Moreover, the “EC50 (read off the curve)” value is around 0.3 µg/mL in assay [2] and around 0.1 µg/mL in [5]. Also, the EC50 in assay [3] and in assay [4] was 2.85 nM each time.

B2: humanized sp34 scFv BG561P (scFv-Fc) (Fc fusion)
scFv: B1 scFv with V144L
notes: scFv (VH-3xG4S-VK) fused to N-terminus of a human IgG1 Fc region; also called scFv-ized BG56P; not shown: human IgG1 Fc region, scFv fused to its N-terminus
For the molecule B2, the Kd was determined as 4.98 nM with CD3ε (SPR analyte) [1] and 9.08 nM with CD3ε (SPR analyte) [7]. Moreover, the koff with CD3ε (SPR analyte) [1] came to 0.00036 s⁻¹; with CD3ε (SPR analyte) [7], 0.000401 s⁻¹. Moreover, the kon in the assay with CD3ε (SPR analyte) [1] was found to be 72200 M⁻¹ s⁻¹; in the assay with CD3ε (SPR analyte) [7] it was 44200 M⁻¹ s⁻¹. For the same molecule, the “EC50 (read off the curve)” value in assay [2] was around 0.5 µg/mL; in [5], around 0.3 µg/mL. For the same molecule, the EC50 in assay [3] is 2.46 nM; in [6], 4.35 nM.

B3: humanized scFv BG563P (scFv-Fc) (Fc fusion)
scFv: B1 scFv with A49G, D68G
notes: BG561P with L4V in VL and A49G, D65G in VH; not shown: human IgG1 Fc region, scFv fused to its N-terminus
Take B3: in the assay with CD3ε (SPR analyte) [1], the Kd was 1.57 nM, the koff was 0.000772 s⁻¹ and the kon was 493000 M⁻¹ s⁻¹. In assay [2], the “EC50 (read off the curve)” value was around 0.1 µg/mL. In addition, the 50% effective concentration (EC50) in [4] was determined as 0.94 nM. Also, the “EC50 (read off the curve)” value in [8] was around 0.1 µg/mL. Besides, it took 0.94 nM to reach a half-maximal effect in assay [9] (EC50).

B4: humanized scFv BG564P (scFv-Fc) (Fc fusion)
scFv: B1 scFv with N30S, A49G, D68G, N106S
notes: BG563P with N30S and N100S in VH; not shown: human IgG1 Fc region, scFv fused to its N-terminus
For the molecule B4, in the assay with CD3ε (SPR analyte) [1], binding was put at a Kd of 1.39 nM, the koff was 0.000576 s⁻¹ and the kon is 414000 M⁻¹ s⁻¹. In [8], the “EC50 (read off the curve)” value was around 0.1 µg/mL. Also, the EC50 in [9] was found to be 1.23 nM.

B5: BG87P-34 (antibody, V domains shown)
VH: EVQLQESGGGLVQPGGSLRLSCAASGYSFSDYHINWVRQAPGKGLEWVGYIYPGSGHTKYNEKFKGRFTISRDTSSNTAYLQMNSLRAEDTAVYYCARSGIYHYVSSYYFDHWGQGTLVTVSS
VL: DIQMTQSPSSLSASVGDRVTITCKASQDAGSAVAWYQQKPGKAPKLLIYWASTRHTGVPSRFSGSGSGTDFTLTISSLQPEDFATYYCQQYSSYTFGGGTKLEIK
notes: Framework-swapped final lead (IGHV3-23 / IGKV1-39); also called BG87-34
With B5, the figures for the “FACS Emax ratio to BG87P” value with human claudin 6 (CLDN6) [10] and with cyno CLDN6 [11] were 1.03 ratio and 1 ratio, respectively. Also, the “EC50 (read off the curve)” value was around 10 nM in the assay with human claudin 6 (CLDN6) [12] and around 9 nM with cyno CLDN6 [14]. A half-maximal response with cyno CLDN6 [13] (EC50) required 8.8 nM. Also, the figures for the binding result in the assay with human claudin 9 (CLDN9) and with mouse CLDN6 were “no binding (tested: about 250 nM (log 2.4))” and “binds”, respectively. Further, in the assay with human claudin 6 (CLDN6) [15], the “FACS-Ec50 ratio to BG87P” value turned out to be 1.17 ratio.
